{
  "source": "the NTF2 design screens of Basanta et al. (2020)",
  "data": [
    {"assay": "protease stability score; higher = more stable; yeast display proteolysis, trypsin and chymotrypsin;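 note: log10 excess protease needed over predicted unfolded state with 0 meaning unfolded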", "values": [
      {"sequence": "DERKVDVARNVAKAILTNDPDRAMSMVDKDVTVVIGDKEINGHEDFREHIEKQSKEAKLDMRSVDADNRGDKAVLTLDYQIDYNGKPMRDTQTIEVHVTNGRVKELRVRVDESLKRDLKS", "protease stability score": -0.28},
      {"sequence": "DERLADQVVELLHVMEDGDEKRVDQLIDKDVKFKVGDKDYHGDETARRRAKNLRDQMRIEYDLKDYRTNGDNAILNAEVRMNINGQPYSHHVKIVVRARNGKVKHLQMSFDEETQKKVDQ", "protease stability score": 0.909},
      {"sequence": "DERLAKQVLTMMRNERTGNEHEVDKYVDPNARFQVGDQEIHGKEELRKEVSRRRNEMRIDFRVEDMKVHGDKVHLSFKNMKNHNGRPESFRATATVHVHNGTVKSVDIKTTK", "protease stability score": -0.453},
      {"sequence": "DERLEDKMRKFLEVLRTGDEKKLRDLADPNVRFDIGEKKYRGRDEAVREYKRMRDEIRFEIKIRSLEAQGNKVDVTFEMTYDHNGKPKHNVVKLVFEQHNGKLKQLKVKSDK", "protease stability score": 0.596},
      {"sequence": "DERLHKQIERLFEQLNTGDEDKYVEYADPNARINVGDKNVHGRDQIRHMIRKENQEIRVEYEVKDIKASNGRARVDATVENEENGRPHTNRIDLVINVHNGRAKEIELRVPEDLLRTMKS", "protease stability score": -0.131},
      {"sequence": "DERLKEQVKRLWEALKENDHDELSKLVDKDAHIVVGDKEVHGRENFMTEMATELSEIRIDYKRLHIDAQGDTADVEVDVEQEHNGQPRRDVKRVEFEYENGRLVKMNVQDNG", "protease stability score": 0.438},
      {"sequence": "DERLLHEFQKNVENNNWDKLSELVDEDAKIKYGDKTITGRESLDRMFTQLKRQVDHVDIESVHIDGDKVHVDLRIRVNGHSVRFIMTAEFSNGRIKSMKIEVTSEEQQDHLNEQLS", "protease stability score": 1.19},
      {"sequence": "DERLREQLNRFHKLLEKNNPEKLVEQLDPNAEFEVGDKQYHGREQIEDWQRRLAKRQRFSRDFKSIDASNGNVRATFRVVITHDGKPDDYLAVMHFQVKNGKFKRFVIKRNQ", "protease stability score": 0.291},
      {"sequence": "DERMDDTLRRLVERGDFHKIAENADPNVRMQVGNKVFHGREEVRRAAERWQNQVDHYQVDSVRVHNGHVSAHVQATVNGQRIRFTIKIDVQGDKVQRMEIEFTSEEQKKLQDEAVE", "protease stability score": 1.41},
      {"sequence": "DERMKKLAEQIVKARRTGDEKQQKELFDEDAHVQIGDKTVHGKENQIETMKKRRDEIRVEIRINSLSVNNGKADISLEQTDDKNGTPKTDVVRATVHATNGRVKEVRYKHDG", "protease stability score": -0.156},
      {"sequence": "DERNERVFHHFVEAISFNDPQQARRNADKDVKFDVGEKVLHGREEWDKQMEHNKKHMRQDMRVKEVSTSGDKVTARVEQEHNHNGKPSTRDVKMSVEINNGKIKSFRLTTVS", "protease stability score": -0.129},
      {"sequence": "DERNIERARKWWEALQENNPDQARKLMDKDVTFTYGDKTYHGREDIAKDIHRRLENMRVEIKSMTLEDHNGRVDAQVDLVVDVNGQPRQVTLDAKVNVENGRVKEFNVQFDEQLRHDIQK", "protease stability score": 0.132},
      {"sequence": "DERNKKVLRQFMHAQMRGNPEKAKKLADPNAKFQVGDKTVHGMDEWVRQLDRKKKQIRFEVRVDSVRVHGDNVTMHVEYRATYNGKPYSDKVDYSARLHNGKITKLSAEMDPEFQRELDT", "protease stability score": 0.296},
      {"sequence": "DERNKRRFDEFERARKTGDPDRMKELADPNAKLDVGNKTITGMDEIVRQLKHEQDKIEIDIKFDRITVQGNNLRAEYHEEYNVNGKPFHDKVVLEVQFDNGKIRELKLRVDPEKQDERRT", "protease stability score": -0.003},
      {"sequence": "DERNLHVANEFWKVLTDGDPRRLMELVDPNAKIQYGDKTITGREEIRKKAEKDTKKSRFEVQVQDIRVTGDTANIHAVFNEDHNGQPSQDFYVVTMAMNGDKIRFMIQRKSK", "protease stability score": 0.483},
      {"sequence": "DERNLRVVKHFWHAVRTGDPEEVKRQADKHVRVRIGDKHIEGRETLAHEVREEKNQLENDIQIRDIKVQGDRVHMRVVVVFNIDGRPQSVQITVEAKAHNGKLQSMSQEVPEEVLHEIEK", "protease stability score": 0.021},
      {"sequence": "DERNNEFAKHFIEVLNQGDWKRLNEMLDPNVKVEIGDTTIHGRENFSRNVKQDLDHLRQEFHITSMDASGNKVEVRADVINRDNGKPREFKMKMEIRFHNGRVKEIKLDHDG", "protease stability score": 1.53},
      {"sequence": "DERNNKQADQFLRDMEKNDEHKLRKLADENVKFKIGDKVFRGWHDAVTEIATRIREMRVNVHRYDVKTHNGRVNLEIHQTAEYNGQPLNFSYIVIMEYQNGRLVRVNIRVSEEELKTMTQ", "protease stability score": 0.475},
      {"sequence": "DERNQKEVADKMYTAFRHGDPRKINKLADKDVTARYGDKVVSGRDDMVRQIDEIRKSIDHMSITSIEVHNGKADATLRFVVNGRDLQMKLVIVIHNGKVKHLSVQFRDDEQKKVLER", "protease stability score": -0.174},
      {"sequence": "DERNQRNLEKMLKAQERGNPDLLEELVDKNVKIEVGDKSVHGREELHRQQDRRRKQATLRYDDLRMKVSGNKVRVDMKFQVNHDGKPEKATADATYEFDNGKLKHVSVRVRQ", "protease stability score": -0.06},
      {"sequence": "DERNREIVEEYFKAIKQGDEDRYKQMVDPNVHVEVGDRNYHGREHQARWMHRLRKHMRLVFNIRSIDVSGDKVKVKLDYEEEHNGEPRTNKMTVEFKFHNGKILKIKIQTRQ", "protease stability score": 2.08},
      {"sequence": "DERNSELLKKVQEAWDHGDPRKLDEQMDPNAKVNVGDKNLHGKEQLRNTLEEDTRHSRVRVDYDSVTDHNGRVRASATFQDVINGKPVRDTFDFVAEVNNGKMKMLKVRVPEDNKRKLKR", "protease stability score": 0.022},
      {"sequence": "DERQENNARKFFTAYLKGDEHKLTELMRDDVRLKIGDKEIHGRETALKTIHTLRRRQRIHIQVDNIEVDENHVEVHAKIEWEHNGQPDSQKVRIDIKFHNGRINYLQMDLRG", "protease stability score": 1.59},
      {"sequence": "DERQIEQLKRYLEALKTGDKEKIKELLDPNARIVYGDKEVKGRENIAEQVKKRKDDSRYDWTSVDVKTSGDKLVMTARKVNNRNGRPHERQFTADIKIKNGRMQHLQFDSTG", "protease stability score": -0.323},
      {"sequence": "DERQLDLLRQFLHAVQHGDEDRLKELADPNAKFTVGDKTIHGMNTFARTVKRRRDQARFQYNVKSMEADGDKMEVRIQLHVDVNGRPINVEFTARAHVDGDKLKSLELRIPEEVLKKQES", "protease stability score": 0.037},
      {"sequence": "DERQLKILVRILNAIHEGDPDTVKQLVDPNARVVIGDKVLHGMDEVRDTLHKWQEEQEVDLKDYRDNVHNGKADITAKAKVNQDGTPDHIRFKATAEFRNGRAKEVRINHDK", "protease stability score": 1.09},
      {"sequence": "DERQNERFETLVKAIEEGDEDEAREQMDPNVRIEVGDKVIHGMDEFADTVRRTREELRVEFKIKRLRIKNGQVDVEMHVTFDHNGEPETARMVIKVNAHNGKIKNVVMRIHK", "protease stability score": 1.6},
      {"sequence": "DERQNKEAFQRVAENITTNNPDEIMKQADPNVRFKYGDKEVHGRENVRDIVKEFNERVDRVQIDHVNVQGDKVNANATADVNGRKHRFQIHAVIKNGRLKFMQIHDQ", "protease stability score": 1.09},
      {"sequence": "DERQNSQLHRQIEQAKQGDEEKVRQQMDENARARYGDKEVHGRTELARQQVRQWNEAKIDIEFKRVSAHENEIRVNVVMQFDVDGRPNRSTWTFKVRFHNGTIKQINAEIDPDEWDTLLK", "protease stability score": 0.506},
      {"sequence": "DERQRSRAEEFMKNYQTGNEQNLDKLFDKNAKVHVGDKVVHGREQIREQNRREKEHLRFKIRHMDVEVRNGHVSVQVRMEREHNGHPQTVSVQFRNEQHNGQIKRFEREEQQ", "protease stability score": 0.258},
      {"sequence": "DERQVERIDRHLKALEHGDEKTLVEMIDPNAHFSVGDKEIHGREEYAHQQRRRVKESRFQVTIKDVQVNGDTVHIKYTSDQKHNGQPREDSNVMVMDATGERIESAKVTKDQ", "protease stability score": -0.418},
      {"sequence": "DERQVKEIALEAAKAYISGNKEKLKKLGKEDVELEAGSHKYKGVEQMATVVEQFKKYGVELQITDVKVDGDKVKMRIQVHAGGTTWEFTMEIQVDGGRVDKMTIHLSEEMVKRIQKG", "protease stability score": 1.02},
      {"sequence": "DERRLEEVARHIRRGDKKHLNRLADPNAQLQYGNQRYTGRERVQTFWRQMITRADHLRVQSVTIHNGRIDAKFEMRVNGNKVEYRLKVQIHNGKAQNVQVNYRDEEDEKRMEENLG", "protease stability score": 0.183},
      {"sequence": "DERRLEQQQREYLKVLNTGNPDEMNELFDENASWQVGDKRYTGREEIERKLRELHNRVDQVRLDSYEVEPGRIKIDFQLDVNGVKVRITIILHYHNGRLQEVKMDVTDPEQWKHMQK", "protease stability score": -0.011},
      {"sequence": "DERRQAQQFADTFDDNMQENNEEEVVKMADPNAELTVGDKEYHGREEIQKWIKQIHDKVDHLEIHIKSVDVRNGRVTIRARVRVEHNGRQKTMSVDIKAEQKNGRFIIKTMTMG", "protease stability score": 1.47},
      {"sequence": "DERRQQEVLKRFIDALQTGDPQKLKELADPNAQVNVGDKTFHGRDELVRQVEDEKRRIDEFHVVSIENHGDHVTARFRKESDGHQTEFVMKAYVHNGKVQSVKIDSS", "protease stability score": 0.201},
      {"sequence": "DERTLEQLLQDFINNMQTGDHQSLKDLLDENARVNIGDKTLSGRERVTTALKRLMRRVDHIQVDHYEVTNGEMNIDMQLEVNGVRVKVEVIIEVHNGKAKFIEFRVRNEEQWERVEG", "protease stability score": 1.84},
      {"sequence": "DERTNTEMLKRLQHALQKNDPNEVRKLFDKDVQVQIGDKTLSGREQLLTEAEQRRKKIDDIEVTDMKSNPDHAVLSVVIKHNGRNRKVIYYIRWSNGKVRKVEERES", "protease stability score": 1.5},
      {"sequence": "DERVADQFVRALRTNDEEQLVRLMDEDAKMRVGEKEIHGRESVQTYLRRFAQQADHVDIHHVHIQGDKVSIDAVVEFNGKRVRFSMQFTVEGEKVKDVTIEARDEDDKRKLDEIFR", "protease stability score": 1.79},
      {"sequence": "DERVAHEFVKAINKGDPDRLNELADKNARAEVGDKTFHGREKLEQMWKQWKKMVDHIHIRRVRVHNGHIHVDYVVNIDGQNNQLEIKAVVENGKVQEVKIQVTDEQNQDKLRKKMD", "protease stability score": 1.25},
      {"sequence": "DERVHEAFRRFVHALKEGDPDKIRENADEDVRIEVGDTEIQGRETLADRVEEEMKDMQIEYQIDSIKVHGNKAKVNMRVVKNHNGKPETRKFTVHVTFDNGKVKNVHVQDDR", "protease stability score": 1.3},
      {"sequence": "DERVIQEIRKMFNTNNFDSIAKNADKDATASIGNKHVHGKDNVKKLLDQFSRQIDHIQIDSVHVQGEKFVAQMKVNINGRERTAEMRMEVHNGKIQRISITFTDPSAQQTIKERME", "protease stability score": 0.942},
      {"sequence": "DERVKQQVETLERAVKHNDEDRLKELMDPNVRVRVGDRTVEGREEIAKQLVRTNNESRIEQKIDRVDVRGDKVHIDFQRREHHDGKPDSAKFNVLVKASNGRISEMEVHTNQ", "protease stability score": -0.248},
      {"sequence": "DERVKRLVEQWFRAIEHGDPDQERKYFDPNARVEIGDRELNGREEIAHDLKRRHDEMHLHLKSVTIRVEGDHAEVNVRFQQDHNGKPEQKVQHVVLHFRGDYVRKMEVRDTK", "protease stability score": 1.15},
      {"sequence": "DERVKSQATEFVTALKRNDEKRLMELADKDVSVRYGDKVVHGRERVRETARHITEESRVEYDTVRVDVQGNQANVEMEATFDHNGKPDRAKVNIQINFHNGKIKRVRIDKKP", "protease stability score": 0.971},
      {"sequence": "DERVNREWEKFIHAFESGNESQLKRLMDKDVRLTVGDKQIEGREEMARQLKKRRDQSRVSINIESVQHDGDKVHIQFHVTNNKNGRPEKRTSVVTVEAHNGKLKEVNIDDKP", "protease stability score": 0.803},
      {"sequence": "DERWKEKFEQMVRDQKTGNEDEVAKYFDKNAEIKVGDQRFHGREQLREHLREQRRQMRVDIDIKHVDVKGNHITVEYEFRENHNGRPTRRKATLRAEYHNGKIQRMRIDKSG", "protease stability score": 1.33},
      {"sequence": "DESAAERFDEFMRNVDTNNEHKLKEYADPNAKVQYGDKVLHGMDQIIHDIRRYMEEMRVRVDFKRYDAQGNELSFVADYSAEYNGEPVNDNVTFHVEAHNGKLKDMKINFDPKKDQDRRG", "protease stability score": 0.355},
      {"sequence": "DESAHKLVHDMMDAIRQNNPERVEQLADPNVKIEYGDEVIQGRENVSTTMKEILEKQRVEYNFKRVDDHNGQVRADVEVEVEHNGEPHRDKLIVHAERHNGRIRYVELQHDG", "protease stability score": -0.174},
      {"sequence": "DESAIHDVTNLLHNIQTGNPDEVDKHMDKHVKLNVGDKQISGRHRVRKKVEREKKEIRIHITVYHMRSRPGRVKIDATRENEHNGTPHSHRVIVDVRYDNGKIVNFRVEDVK", "protease stability score": 0.366}
    ]}
  ]
}
